Data: article PMC4139204 (The Journal of Biological Chemistry, 2014)

B1: MTA1-(670-695) peptide (peptide, UniProt Q13330 670-695, looked up)
peptide: Ac-KLLSSSETKRAARRPYKPIALRQSQA-NH2
B2: MTA1-(656-686) peptide (peptide, UniProt Q13330 656-686, looked up)
peptide: Ac-DVFYMATEETRKIRKLLSSSETKRAARRPYK-NH2
B3: MTA1-(670-711) peptide (peptide, UniProt Q13330 670-711, looked up)
peptide: Ac-KLLSSSETKRAARRPYKPIALRQSQALPPRPPPPAPVNDEPI-NH2

Biological target: Recombinant RbAp48 (human, UniProt Q09028 1-425)
Experiment: ITC; MTA1 peptide (250 uM) titrated into RbAp48 (25 uM); 25 C; 20 mM Tris pH 7.5, 150 mM NaCl; single-site model
Conditions: both partners purified

Recombinant RbAp48, sequence (Q09028 whole entry): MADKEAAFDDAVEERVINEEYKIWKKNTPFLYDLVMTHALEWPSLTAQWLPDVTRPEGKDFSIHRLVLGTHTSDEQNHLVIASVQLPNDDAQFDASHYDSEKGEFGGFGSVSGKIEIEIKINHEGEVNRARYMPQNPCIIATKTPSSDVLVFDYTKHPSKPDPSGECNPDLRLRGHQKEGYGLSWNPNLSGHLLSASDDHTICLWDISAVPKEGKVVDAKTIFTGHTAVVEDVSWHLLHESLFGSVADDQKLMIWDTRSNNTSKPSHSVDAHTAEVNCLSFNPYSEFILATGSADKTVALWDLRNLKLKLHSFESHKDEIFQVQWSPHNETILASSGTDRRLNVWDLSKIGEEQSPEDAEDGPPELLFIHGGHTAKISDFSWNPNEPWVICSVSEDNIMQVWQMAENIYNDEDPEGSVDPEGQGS

Binder	Kd [nM]	stoichiometry N
B1	50	1
B2	–	1
B3	–	1
